According to the RNAGym collection of RNA variant scans (doi:10.1073/pnas.2313332121):
This sample holds only a part of the variants without activity.

B1: TPR 5TU (parent)
chain: GGAUCUUCUCGAUCUAACAAAAAAGACAAAUCUGCCACAAAGCUUGAGAGCAUCUUCGGAUGCAGAGGCGGCAGCCUUCGGUGGCGCGAUAGCGCCAACGUUCUCAACUAUGACACGCAAAACGCGUGCUCCGUUGAAUGGAGUUUAUCAUG

Variants of: B1
Experiment: polymerase ribozyme fitness, log enrichment relative to wild type (log ratio); higher = more active; in vitro selection for triplet polymerase activity
In short: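 Each subunit of a heterodimeric triplet polymerase ribozyme was represented by a PCR-built, transcribed mutant library that underwent triplicate single-round in vitro selection with frozen incubation at −7 °C. Extended constructs were recovered by gel excision, streptavidin-bead capture and RT-PCR, and Illumina sequencing of input and output libraries kept genotypes with ≥10 input reads and ≥1 read per output. Fitness is the logarithm of genotype enrichment relative to wild-type enrichment, from inverse-variance-weighted replicate averages, with a logarithm base of 2.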

Row | Variant | polymerase ribozyme fitness (log ratio)
1 | GGAUCUUCUCGAUCUAACAAAAAAGACAAAUCUGACACAAAGCUUGAGAGCAUUUUCGGAUGCAGAGGCGGCAGCCUUCGGUGGCGCGAUAGCUCCAACGUUCUCAACUAUGACACGCAAAACGCGUGCUCCGUGGAAUCGAGUUUAUCAUG | ≤ -4.2
2 | GGAUCUUCUCGAUCUAACAAAAAAGACAAAUCUGGCACAAAGCUUGAGAGCAUCUUCGGAUGCAGAGGCGGCAGCCUUCGGUGGUGCGAUAGCGCCAACGUUCUCAACUAUGACACGCAAAACGCGUGCUCCGUUGAAUGGAGUUUAUCAUG | ≤ -4.2
3 | GGAUCUUCUCGAUCUAACAAAAAAGACAAAUCUGACACAAAGCUUGAGAGCAUCUUCGGAUGCAGAGGCGGCAGCCUUCGGUCGCGCGAUAGCGCCAACGUUCUCAACUAUGAAACGCAAAACGCGUGCUCCGUUGAAUGGAGUUUAUCAUG | ≤ -4.2
4 | GGAUCUUCUCGAUCUAACAAAAAAGACAAAUCUGACACAAAGCUUGAGAGCAUCUUCGGAUGCAGAGGAGGCAGCCUUCGGUGGCGCGAUAGCGCCAAUGUUCUCAACUAUGACACGCAAAACGCGCGCUCCGUUGAAUGGAGUUUAUCAUG | ≤ -4.2
5 | GGAUCUUCUCGAUCUAACAAAAAAGACAAAUCUGACACAAAGCUUGAGAGCAUCUUCGGAUGCAGAGGCGGUAGCCUUCGGUGGCGCGAUAGCGCCAACGUUCUCAACUAUGACACGAAAAACGCCUGCUCCGUUGAAUGGAGUUUAUCAUG | ≤ -4.2
6 | GGAUCUUCUCGAUCUAACAAAAAAGACAAAUCUGGCACAAUGCUUGAGAGCAUCUUCGGAUGCAGAGGCGGCAGCCUUCGGUGGCGCGAUAGCGCCAACGUUCUCAACUAUGACACGCAAAACGCGUGCUCCGUUUAAUGAAGUUUAUCAUG | ≤ -4.2
7 | GGAUCUUCUCGAUCUAACAAAAAAGACAAAUCUGGCACAAAGCUUGAGAGCAUCUUCGGAUGCAGAGGCGGCAGCGUUCGGUGGCGCGGUAGCGCCAACGUUCUCAACUAUGACACGCAAAACGCGUGCUCCGUUGAAUGGAGUUUAUCAUG | -3.96
8 | GGAUCUUCUCGAUCUAACAAAAAAGACAAAUCUGACACAAAGCUUGAGAGCAUCUUCGGAUGCAGAGGCGGCAGCCUUCGGUGGCGCGAUAGCCCCAACGUUCUCAACUAUGACACGCAAAACGCGUACUCCGUUGAAUGGAGUUUAUCAUG | ≤ -4.2
9 | GGAUCUUCUCGAUCUAACAAAAAAGACAAAUCUGGCACAAAGCUUGAGAGCGUCUUCGGAUGCAGAGGCGGCAGCCUUCGGUGGCGCGAUAGCGCUAACGUUCUCAACUAUGACACGCAAAACGCGUGCUCCGUUGAAUUGAGUUUAUCAUG | -4.08
10 | GGAUCUUCUCGAUCUAACAAAAAAGACAAAUCUGGCACAAAGCUUGCGAGCAUCUUCGGAUGCAGACGCGGCAGCCUUCGGUGGCGCGAUCGCGCCAACGUUGUCAACUAUGACACGCAAAACGCGUGCUCCGUUGAAUGGAGUUUAUCAUG | ≤ -4.2
11 | GGAUCUUCUCGAUCUAACAAAAAAGACAAAUCUGACACAAAGCUUGAGAGUAUCUUCGCAUGCGGAGGCGGCAGCCUUCGGUAGCGCGAUAGCGCCAACGUUCUCAACUAUGACACGCAAAACGCGUGCUCCGUUGAAUGGAGUUUAUCAUG | ≤ -4.2
12 | GGAUCUUCUCGAUCUAACAAAAAAGACAAAUCUGACACAAAGCUUGAGAGCAUCUUCGGUGGCCGAGGCGGCAGCCUUCGGCGGAGCGAUAGCGCCAACGUUCUCAACUAUGACACGCAAAACGCGUGCUCCGUUGAAUGGCGUUUAUCAUG | ≤ -4.2
13 | GGAUCUUCUCGAUCUAACAAAAAAGACAAAUCUGACACAAAGCUUGAGAGCAUCUUCGGAUGCAGAGGCGGCAGCCUUCCGUGGCGCAAUAGCGCCAACGUUUUCAACUGUGACACGCAAAACGCGUGCUCCGUUGAAUGGAGUUUAUAAUG | ≤ -4.2
14 | GGAUCUUCUCGAUCUAACAAAAAAGACAAAUCUGACACAAAGCUUGAGAGCAUCAUCGGAUGCAGAGGCGGCAGCCUUCGGUGGCGCGAUAGCGCCAACGUUCUCAACUAUGACACGCAAAACGCGUGCUCCGUUGAAUGGAGUUUAUCAUG | -2.64
15 | GGAUCUUCUCGAUCUAACAAAAAAGACAAAUCUGGCACAAAGCUUGAGAGCAUGUUCGGAUGCAGAGGCGGCAGCCUUUGGUGGCGCGAUAGCGCCAACGUUCUCAACUAUGACACGCAAAACGCGAGCUCCGUUGAAUGGAGUUUAUCAUG | ≤ -4.2
16 | GGAUCUUCUCGAUCUAACAAAAAAGACAAAUCUGACACAAAGCUUGAGAGCAUCUACGGAUGCAGAGGCGGCAGCCUUCGGUGGCGCGAUAGCGCCAACGUGCUAAACUAUGACACGCAAAACGCGUGCUCCGUUGAAUGGAGUUUAUCAUA | ≤ -4.2
17 | GGAUCUUCUCGAUCUAACAAAAAAGACAAAUCUGACACGAAGCUUGAGAGCAUCUUCGGAUGCAGAGGCGGCAGCCUUCGGUGGCGCGAUAGCGCCAACGUUCUCAACUAUGACACGCAAAACGCGUGCUCCGUUGAAUGGAGUUUAUCAUG | ≤ -4.2
18 | GGAUCUUCUCGAUCUAACAAAAAAGACAAAUCUGGCACAUAGCUUGAGAGCAUCUUCGGAUGCAGAGGCGACAGCCUUCGGUGGCGUGAUAGCGCCAACGUUCUCAACUAUGACACGCAAAACGCGUGCUCCGUUUAAUGGAGUUUAGCAUG | ≤ -4.2
19 | GGAUCUUCUCGAUCUAACAAAAAAGACAAAUCUGGCACAAAGCUUGAGAGCAUCUUCGGAUGCAGAGGCGGCAGCGUUCGAGGGCGCGAUAGUGCCAACGUUCUCAACUAUGACACGCAAGACGCGUGCUCCGUUGAAUGGAGUUUAUCAUU | -3.58

Row | Variant | polymerase ribozyme fitness (log ratio)
20 | GGAUCUUCUCGAUCUAACAAAAAAGACAAAUCUGGCACAAAGCUUGAGAGCAUCUUUGGAUGCAGAGGCGGCAGCCUUCGGUGGCGCGAUAGCGCCAACGUUCUCAACUAUGACACGCAAAACGCGUGCUCCGUUGAAUGGAGUUUAUCAUG | ≤ -4.2
21 | GGAUCUUCUCGAUCUAACAAAAAAGACAAAUCUGGCACAAAGCUUGAUAGCAUCUUUGGAUGCAGAGGCGGCAGCCUUCGGUGGCGCGAUAGCGCCAACGUUCUCAACUUUGACAUGCAAAACGCGUGCUCCGUUGACUGGAGUUUAUCAUG | ≤ -4.2
22 | GGAUCUUCUCGAUCUAACAAAAAAGACAAAUCUGACACAAAGCUUGAGAGCAUCUUCGGAUGCAGAGGCGGCAGCCUUCGGUGGCGCGAUAGCGCCAUCGUUCUCAUCUAUGACACGCAAAACGCGUGCUCCGUUGUAUGGAGUUUAUCAUG | ≤ -4.2
23 | GGAUCUUCUCGAUCUAACAAAAAAGACAAAUCUGACACAAAGCUUGAGAGCAUCUUCGGAUGCAGAGGCGGCAGCCUUCGGUGGCGCGAUAGCCCCAACGUUCUCGACUAUGACACGCAAAACGCGUGCUCCGUUGAAUGGAGUUUAUCAUG | -3.77
24 | GGAUCUUCUCGAUCUAACAAAAAAGACAAAUCUGACACAAAGCUUGAGAGCAUCUUCGGAUGCAGAGGCGGCAGCCUUCGGUGGCGCGAUAACGCCAACGUUCUCAGCUAUGACACGCAAAACGCGUGCUCCGUUGAAUGGAGUUUAUCAUG | ≤ -4.2
25 | GGAUCUUCUCGAUCUAACAAAAAAGACAAAUCUGACACAAAGCUUGAGAGCAUCUUCGGAUGCAGAGGCGGCAGCCUUCGGUGGCGCGAUAGCGCCAGCGUUCUCAACUAUGACACGCAAAACGCGUGCUCCGUUGAAUGGAGUUUAUCAUG | -3.17
26 | GGAUCUUCUCGAUCUAACAAAAAAGACAAAUCUGACACAAAGCUUGAGAGCAUCUUAGGAUGCAGAGGCGGCAGCCUUCGGUUGCGCGAUAGCCCCAACGUUCUCAACUAUGACACGCAAAACGCGUGCUCCGUUGAAUGGAGUUUAUCAUG | ≤ -4.2
27 | GGAUCUUCUCGAUCUAACAAAAAAGACAAAUCUGGCACAAAGCUUGAAAGCAUCUUCUGAUGCAGAGGCGGCAGCCUUUGGUGGUGCGAUAGCGCCAACGUUCUCAACUAUGACACGCAAAACGCGUGCUCCGUUGAAUGGAGUUUAUCAUG | ≤ -4.2
28 | GGAUCUUCUCGAUCUAACAAAAAAGACAAAUCUGACACAAAGCUUGAGAGCAUCUUCGGAUGCAGCGGCGGCAGCCUUCGGUGGCGCGAUAGCGCCAACGUUCGCAACUAUGACACGCAAAACGCGUGCUCCGUUGAAUGGAGUUUAUCAUG | ≤ -4.2
29 | GGAUCUUCUCGAUCUAACAAAAAAGACAAAUCUGGCAAAAAGCUUGAGAGCAUCUUCGGAUGCAGAGGUGGCAGCCUUCGGUGUCGCGAUAGCGCCAACGUUCUCAACUAUGACACGCAAAACGCGUGCUCCGUUGAAUGGAGUUUAUCAUG | ≤ -4.2
30 | GGAUCUUCUCGAUCUAACAAAAAAGACAAAUCUGACACAAAGCUUGAGAGCAUCUUCGGAUGCAGAGACGGCAGCCUUCGGUGGCGCGAUAGCGGCAACGUUCUCAACUAUGACACGCAAAACGCGUGCUCGGUUGAAUGGAGUUUAUCAUG | ≤ -4.2
31 | GGAUCUUCUCGAUCUAACAAAAAAGACAAAUCUGACACAAAGCUUGAGAGCAUCUUCGGAUGCAAAGGCGGCAGCCUUCGGUGGCGCGAUAGCGCCAACGUUCUCAACUAUGACACGCAAAACGCGUGCUCCGUUGAAUGGAGCUUAUCAUG | ≤ -4.2
32 | GGAUCUUCUCGAUCUAACAAAAAAGACAAAUCUGACACAAAGCUUGCGAGCAUCUUCGGAUGCAGAGGCGGCAGCCUUCGGUGGCGCGAUAGCGCCAACGUUCUCAACUAUGACACGCAAAACGCGUGCUCCGUUGAAUGGAGUUUAUCAUG | -3.11
33 | GGAUCUUCUCGAUCUAACAAAAAAGACAAAUCUGACACAAAGCUUGAGAGCAUCUUCGGAUGCAAAGGCGGCAGCCUUCGGUGGCGCGAUAGCGCCAACGUUCUCAACUAUGACACGCAAAACGCGUGCUCCGUUGAAUGGAGUUUAUCAUG | -3.77
34 | GGAUCUUCUCGAUCUAACAAAAAAGACAAAUCUGACACAUAGCUUGAGGGCAUCUUCGGAUGCAGAGGCGGCAGCCUUCGGUGGCGAGAUAGCGCCAACGUUCUCAACUAUCACACGCAAAACGCGUGCUCCGUUGAAUGGAGUUUAUCAUG | ≤ -4.2
35 | GGAUCUUCUCGAUCUAACAAAAAAGACAAAUCUGACACAAAGCUUGAGAGCAUCUUCGGCUGCAGUGGCGGCAGCCUUCGGUGGCGCGAUAGCGCCAACGUUCUCAACUAUGACACGCAUAACGCGUGCUCCGUUGAAUGGAGUUCAUCUUG | ≤ -4.2
36 | GGAUCUUCUCGAUCUAACAAAAAAGACAAAUCUGACACAAAGCUUGAGAGCAUCUUCGGAUGCAGAGGCGGCAGCCUUUGGUGGCGCGAUAGCGCCAAUGUUUUCAACUAUGACACGCAAAACGCGUGCUCCGUUGAAUGGAGUUUAUCAUG | ≤ -4.2
37 | GGAUCUUCUCGAUCUAACAAAAAAGACAAAUCUGGCACAAAGCUUGAGAGCAUCUUCGGAUGCAGAGGCGGCAGCCUUCGGUGGCGCGAUAGCGGCAACGUUCUCAACUAUGACACGCAAAACGCGUGCUCCGUUGAAUGGAGUUUAUCAUG | -4.19
38 | GGAUCUUCUCGAUCUAACAAAAAAGACAAAUCUGACACAAAGCUUGAGAGCAUCGUUGGAUGCAGAGGCGGCAGCCUUCGGUGGCGCGAUAGAGCGAACGUUCUCAACUAUGACACGUAAAACGCGUGCUCCGUUGAAUGGAGUUUAUCAUG | ≤ -4.2
